Assay results: patent US20260185108A1 (Johns Hopkins, published 2026)
Residue numbers refer to the chain shown, from its start.

Experiments:
[1] = biological target: T1, CD63 (endogenous, on WT 293F cells) (UniProt P08962 2-238, limits assumed); assay: flow cytometry of CP05-Cy5 on WT 293F cells against 293F/CD63-/- cells
T1 construct: whole, on cells; Compared with the 293F/CD63-/- knockout line as the negative control; also called WT CD63
T1 sequence (looked up): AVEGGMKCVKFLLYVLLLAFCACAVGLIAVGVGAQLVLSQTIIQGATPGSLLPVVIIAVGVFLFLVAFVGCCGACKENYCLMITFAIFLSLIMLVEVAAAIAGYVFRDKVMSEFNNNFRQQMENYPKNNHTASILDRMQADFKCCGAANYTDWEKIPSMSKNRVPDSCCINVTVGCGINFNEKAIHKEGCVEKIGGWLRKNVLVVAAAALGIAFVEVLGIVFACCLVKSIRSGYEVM
Experimental: (§1) For measurement of surface CD63 abundance and Cy5-CP05 peptide binding, cells were washed in HBSS, released from tissue culture plates using trypsin/EDTA solution, and resuspended at a concentration of 1×10^7 cells per ml in HBSS. Cell suspensions were maintained on ice, diluted to a concentration of 1×10^6 cells per ml, incubated with either (i) fluorescently labeled anti-CD63 antibody (catalog no.: 353006; BioLegend) or (ii) CY5-labeled CP05 peptide (NH2-[…](K/Cy5)-amide; Vivitide; molecular weight=[…]). Following the binding reaction, cells were washed five times in PBS and then examined by flow cytometry on a Beckman CytoFlex flow cytometer set at the appropriate excitation and emission wavelengths. The relative brightness was determined for thousands of individual cells in each cell line using Beckman CytExpert software (version 2.3.1.22) to calculate average brightness and CV as well as to generate scatter plots and histograms.
(§2) To determine whether these mutations led to a drop in the cell surface expression of CD63, cell lines were interrogated: the 293F/CD63^{-/-} cell line, the parental 293F cell line, and the F/YA24 cell line by flow cytometry, using a commercially available fluorescently tagged monoclonal anti-CD63 antibody. […]

[2] = biological target: T2, CD63/Y235A (on F/YA24 cells) (UniProt P08962 2-238, limits assumed); assay: flow cytometry of CP05-Cy5 on F/YA24 cells against 293F and 293F/CD63-/- cells
T2 construct: whole, on cells; F/YA24 cells also carry the endogenous CD63 of 293F cells; also called mutant form of CD63
T2 sequence (looked up): T1 sequence (looked up) with Y234A
Experimental: as §1, §2

B1: Cy5-labeled CP05 peptide (NH2-CRHSQMTVTSRL(K/Cy5)-amide) (peptide)
peptide: H-CRHSQMTVTSRLK(Cy5)-NH2
notes: Synthetic peptide (Vivitide); the labeled peptide used in the assay has one more Lys(Cy5) and a C-terminal amide; also called CP05-Cy5; Cy5-CP05 peptide
[1]
  binding result: no binding (tested: 0.34 µM and 3.4 µM CP05-Cy5)
[2]
  binding result: no binding (tested: 0.34 µM and 3.4 µM CP05-Cy5)
